Experimental findings from the supplement of paper PMC9732359 are described below.

± gives the uncertainty stated by the source.

The data set can be described thus: protein stability index of a GFP-peptide fusion (yeast GPS) (PSI 1-4); higher = more stable; sorted into four equal gates, so the index is relative within each strain. The method, boiled down:
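Plasmids isolated from each sorting gate were PCR-amplified and Illumina-sequenced, and barcodes assigned the reads to strains. The gates, four of equal size, were set by GFP/Cherry fluorescence ratio on mid-log cultures in leucine-free medium. These cultures were yeast carrying a pooled library of tiled 17-residue yeast protein peptides fused downstream of GFP on a plasmid that also expresses Cherry. The protein stability index is the sum of every gate's read frequency times its gate number.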

On to KYVHVSEVGNCSGSGMG [FAS2], for which the protein stability index reads like this: (doa10∆) 2.88 ± 0.055; (pdr5∆) 3.08 ± 0.058; (san1∆) 2.92 ± 0.051; (ubr1∆) 2.92 ± 0.041.

Take ELNDIDTKIDQVNGNIR [SMC3]: the protein stability index is, setting by setting: (doa10∆) 3.34 ± 0.22; (pdr5∆) 3.34 ± 0.12; (san1∆) 3.07 ± 0.13; (ubr1∆) 3.2 ± 0.1.

For EKPFNENRFQDTLLLLP [POP4], the protein stability index came out at 1.52 ± 0.11 (doa10∆), 2.58 ± 0.076 (pdr5∆), 1.52 ± 0.14 (san1∆) and 2.72 ± 0.1 (ubr1∆).

Take NVVEADLKRFVDESLLS [QCR2]: the protein stability index reads like this: (doa10∆) 3.14 ± 0.1; (pdr5∆) 3.43 ± 0.1; (san1∆) 3.26 ± 0.055; (ubr1∆) 3.46 ± 0.051.

As for LNSMEKDRISHEVVQDD [PCI8], the protein stability index was 2.61 ± 0.079 (doa10∆), 2.69 ± 0.061 (pdr5∆), 3.01 ± 0.067 (san1∆) and 2.41 ± 0.12 (ubr1∆).

Turning to FGAKPDENKASATSKPA [YJL041W/NSP1], the protein stability index was determined as 2.59 ± 0.066 (doa10∆), 2.87 ± 0.052 (pdr5∆), 2.56 ± 0.057 (san1∆) and 2.74 ± 0.052 (ubr1∆).

In the case of LGAVAGLIPYPHHNQSP [RET1], the protein stability index is, setting by setting: (doa10∆) 2.65 ± 0.094; (pdr5∆) 2.97 ± 0.071; (san1∆) 2.69 ± 0.055; (ubr1∆) 2.94 ± 0.065.

Take NGVVKKAAAGAGSAALK [RPO31]: the protein stability index is, setting by setting: (doa10∆) 3.51 ± 0.13; (pdr5∆) 3.11 ± 0.27; (san1∆) 3.47 ± 0.12.

For LKNLRKKLNFKLCQAFM [YJR042W/NUP85], the protein stability index runs as follows: (doa10∆) 2.19 ± 0.089; (pdr5∆) 2.18 ± 0.093; (san1∆) 1.61 ± 0.15; (ubr1∆) 2.98 ± 0.15.

As to ENNYKKRLLGTAFKSSP [RPS23A], the protein stability index reads like this: (doa10∆) 2.32 ± 0.047; (pdr5∆) 2.6 ± 0.049; (san1∆) 2.22 ± 0.062; (ubr1∆) 2.44 ± 0.036.

In the case of QLIPIILRQRGPGFKFV [SRB4], the protein stability index runs as follows: (doa10∆) 2.55 ± 0.11; (pdr5∆) 1.65 ± 0.073; (san1∆) 1.47 ± 0.19; (ubr1∆) 1.69 ± 0.078.

On to AALGEVASMELKPTNDM [SIR2], for which the protein stability index is 3.46 ± 0.13 (doa10∆), 3.33 ± 0.12 (pdr5∆), 3.52 ± 0.067 (san1∆) and 3.17 ± 0.13 (ubr1∆).

For the sequence IYQHLASHNEKDQDSQI [SRP72], the protein stability index turned out to be 2.58 ± 0.092 (doa10∆), 2.45 ± 0.074 (pdr5∆), 2.53 ± 0.12 (san1∆) and 2.78 ± 0.099 (ubr1∆).

Turning to SGNNNGGFTNLTSQAPQ [YDL088C/ASM4], the protein stability index was 3.24 ± 0.071 (doa10∆), 3.31 ± 0.053 (pdr5∆), 3.16 ± 0.054 (san1∆) and 3.29 ± 0.042 (ubr1∆).

For ALPDVVVKGLPDISRAV [RPO31], the protein stability index by setting is: (doa10∆) 2.85 ± 0.13; (pdr5∆) 2.74 ± 0.079; (san1∆) 2.86 ± 0.072; (ubr1∆) 3.08 ± 0.12.

The sequence NFPEASKLSEHLNHYIL [YCG1] showed a protein stability index (doa10∆) of 2.53 ± 0.29, a protein stability index (pdr5∆) of 2.51 ± 0.11, a protein stability index (san1∆) of 2.66 ± 0.17 and a protein stability index (ubr1∆) of 2.53 ± 0.09.

In the case of GLWGFSTATRNVTMIDD [COR1], the protein stability index worked out at 3.18 ± 0.083 (doa10∆), 3.1 ± 0.08 (pdr5∆), 3.02 ± 0.064 (san1∆) and 2.85 ± 0.066 (ubr1∆).

With PYMNHKNTSSMDFLNSM [GAL11], the protein stability index is, setting by setting: (doa10∆) 1.87 ± 0.056; (pdr5∆) 1.69 ± 0.055; (san1∆) 2.48 ± 0.089; (ubr1∆) 3.04 ± 0.044.

Consider DDESEQISLNRLIDSMK [RRI1], for which the protein stability index is 3.03 ± 0.16 (doa10∆), 3.11 ± 0.28 (pdr5∆) and 3.15 ± 0.14 (ubr1∆).

KIFWERLKEINGWEKYL [ISW2] yielded a protein stability index (ubr1∆) of 1.46 ± 0.24.

Take PRLGSIDRNLKCQTCQE [RPO21]: the protein stability index is, setting by setting: (doa10∆) 2.01 ± 0.099; (pdr5∆) 1.7 ± 0.056; (san1∆) 2.18 ± 0.12; (ubr1∆) 2.67 ± 0.069.

NGFHGRLGDLGVIDDSF [SMC4] yielded a protein stability index (doa10∆) of 3.51 ± 0.17, a protein stability index (pdr5∆) of 3.35 ± 0.11, a protein stability index (san1∆) of 3.11 ± 0.12 and a protein stability index (ubr1∆) of 3.46 ± 0.057.

Consider VLNGQKIVVVRAEALNI [RPL16B], for which the protein stability index (doa10∆) is 2.47 ± 0.14, the protein stability index (pdr5∆) is 3.15 ± 0.14, the protein stability index (san1∆) worked out at 3.16 ± 0.11 and the protein stability index (ubr1∆) is 3.11 ± 0.11.

Turning to SPIFEVLSDDAKKLSSF [ARP9], the protein stability index is 2.84 ± 0.062 (doa10∆), 3.19 ± 0.11 (pdr5∆), 2.88 ± 0.058 (san1∆) and 3 ± 0.069 (ubr1∆).

With WTSTQRHHWQYTKASLA [SSN8], the protein stability index by setting is: (doa10∆) 1.26 ± 0.093; (pdr5∆) 1.38 ± 0.095; (san1∆) 1.42 ± 0.16; (ubr1∆) 1.46 ± 0.073.

Sequence EIDDTEAEVTAEVNGGD [BRR2] yielded a protein stability index (doa10∆) of 3.13 ± 0.088, a protein stability index (pdr5∆) of 2.79 ± 0.12, a protein stability index (san1∆) of 3.01 ± 0.13 and a protein stability index (ubr1∆) of 3.16 ± 0.065.

Consider NGFMESAIVNEDGLLEG [SOH1], for which the protein stability index (san1∆) was 2.86 ± 0.23.

Turning to TQPKATSTGTTIVGVKF [PUP1], the protein stability index is, setting by setting: (doa10∆) 3.48 ± 0.12; (pdr5∆) 3.52 ± 0.1; (san1∆) 3.28 ± 0.1; (ubr1∆) 3.03 ± 0.091.

As to MYTLSAQDEVFSLAFSP [ASC1], the protein stability index reads like this: (doa10∆) 2.24 ± 0.062; (pdr5∆) 2.82 ± 0.085; (san1∆) 2.78 ± 0.059; (ubr1∆) 2.75 ± 0.066.

For AYSSRFQTPFRRRREGK [RPL5], the protein stability index by setting is: (doa10∆) 2.9 ± 0.078; (pdr5∆) 2.75 ± 0.068; (san1∆) 2.58 ± 0.082; (ubr1∆) 3.04 ± 0.064.

In the case of LAKERQKLWLLECQLFP [SSN8], the protein stability index runs as follows: (doa10∆) 2.06 ± 0.057; (pdr5∆) 1.85 ± 0.052; (san1∆) 1.47 ± 0.1; (ubr1∆) 2.05 ± 0.047.

QCIVYPNCLFILKLLNG [SOH1] displayed a protein stability index (doa10∆) of 1.3 ± 0.062, a protein stability index (pdr5∆) of 1.51 ± 0.061, a protein stability index (san1∆) of 1.27 ± 0.14 and a protein stability index (ubr1∆) of 1.29 ± 0.047.

Take EILILINDPTNKEYTLV [SIN4]: the protein stability index is, setting by setting: (doa10∆) 1.77 ± 0.072; (pdr5∆) 2.05 ± 0.067; (san1∆) 2.06 ± 0.1; (ubr1∆) 2.23 ± 0.14.

With VSDSEIIDLNLHSFTKQ [POP6], the protein stability index by setting is: (doa10∆) 2.72 ± 0.061; (pdr5∆) 2.85 ± 0.062; (san1∆) 2.41 ± 0.061; (ubr1∆) 2.73 ± 0.044.

With EFANFELKDICSFAVTK [YML103C/NUP188], the protein stability index reads like this: (doa10∆) 2.07 ± 0.072; (pdr5∆) 2.29 ± 0.065; (san1∆) 2.22 ± 0.12; (ubr1∆) 2.05 ± 0.043.

Consider LPGKVNTKEEFAAAPND [SNF5], for which the protein stability index runs as follows: (doa10∆) 2.66 ± 0.084; (pdr5∆) 2.91 ± 0.061; (san1∆) 2.84 ± 0.058; (ubr1∆) 2.85 ± 0.067.

MFLEFQSTQTDLEKTER [SMC2] registered a protein stability index (doa10∆) of 3.31 ± 0.1, a protein stability index (pdr5∆) of 2.8 ± 0.14, a protein stability index (san1∆) of 2.86 ± 0.25 and a protein stability index (ubr1∆) of 2.64 ± 0.15.

As for AGGPDMTTPQNISSSQQ [DSN1], the protein stability index runs as follows: (doa10∆) 2.83 ± 0.044; (pdr5∆) 3.04 ± 0.04; (san1∆) 2.83 ± 0.037; (ubr1∆) 2.93 ± 0.04.

With NSYQPSPFFVLDEVDAA [SMC1], the protein stability index came out at 2.6 ± 0.12 (doa10∆), 2.57 ± 0.12 (pdr5∆), 2.49 ± 0.12 (san1∆) and 2.77 ± 0.087 (ubr1∆).
